Measurements taken from the DeepSol protein solubility set.

Test: soluble on expression in E. coli; label from the status in PepcDB or PDB records

Sequence | soluble on expression in E. coli
MVSSQKLEKPIEMGSSEPLPIADGDRRRKKKRRGRATDSLPGKFEDMYKLTSELLGEGAYAKVQGAVSLQNGKEYAVKIIEKQAGHSRSRVFREVETLYQCQGNKNILELIEFFEDDTRFYLVFEKLQGGSILAHIQKQKHFNEREASRVVRDVAAALDFLHTKDKVSLCHLGWSAMAPSGLTAAPTSLGSSDPPTSASQVAGTTGIAHRDLKPENILCESPEKVSPVKICDFDLGSGMKLNNSCTPITTPELTTPCGSAEYMAPEVVEVFTDQATFYDKRCDLWSLGVVLYIMLSGYPPFVGHCGADCGWDRGEVCRVCQNKLFESIQEGKYEFPDKDWAHISSEAKDLISKLLVRDAKQRLSAAQVLQHPWVQGQAPEKGLPTPQVLQRNSSTMDLTLFAAEAIALNRQLSQHEENELAEEPEALADGLCSMKLSPPCKSRLARRRALAQAGRGEDRSPPTAL | soluble
MTRTPLTLEQLNALSDDAFTEHFAGVLEHSPHYARRAAAGRPFADVEEVAAAFARAVAADEPGAQVQLIRAHPDLAGKAALAGELTAESASEQTSAGLDRLSPEEYAEFQRLNAAYHERFGLPYVVCVRENTKDTIFEGARRRLTHTQEEEQAAALHEIGRIARLRILDLVQEGRQEKRMDGRLIRIPLEHHHHHH | soluble
MCDKSKTVLDYTIEFLDKYIPEWFETGNKCPLFIFFSGPQGSGKSFTSIQIYNHLMEKYGGEKSIGYASIDDFYLTHEDQLKLNEQFKNNKLLQGRGLPGTHDMKLLQEVLNTIFNNNEHPDQDTVVLPKYDKSQFKGEGDRCPTGQKIKLPVDIFILEGWFLGFNPILQGIENNDLLTGDMVDVNAKLFFYSDLLWRNPEIKSLGIVFTTDNINNVYGWRLQQEHELISKVGKGMTDEQVHAFVDRYMPSYKLYLNDFVRSESLGSIATLTLGIDSNRNVYSTKTRCIE | soluble
SAASGESGTSGGGGSTEEAFMTFYSEVKQIEKRDSVLTSKNQIERLTRPGSSYFNLNPFEVLQIDPEVTDEEIKKRFRQLSILVHPDKNQDDADRAQKAFEAVDKAYKLLLDQEQKKRALDVIQAGKEYVEHTVKERKKQLKKEGKPTIVEEDDPELFKQAVYKQTMKLFAELEIKRKEREAKEMHERKRQREEEIEAQEKAKREREWQKNFEESRDGRVDSWRNFQANTKGKKEKKNRTFLRPPKVKMEQRE | soluble
MTAKQFRHGGENLAVRYALADCELGRCLVAESERGICAILLGDDDATLISELQQMFPAADNAPADLMFQQHVREVIASLNQRDTPLTLPLDIRGTAFQQQVWQALRTIPCGETVSYQQLANAIGKPKAVRAVASACAANKLAIVIPCHRVVRGDGSLSGYRWGVSRKAQLLRREAENEER | soluble
VAKPKKTQPAATAPRVDVFDAKGKPKTVDASALRIAFADGRSLLVSLPDTADGAITLVAEHADAATHAMLALRPEHHDSITLRIEAEPAAEAEDADDALAGAEMLTLDLTVQHGDALKAAARKALPKQKDIEAWIAPALFADAQLNVRFVDEEEGRTLNHTYRGKDYATNVLTFSYAETEDDPVAADIVLCCPVVEQEAKDQGKPLRAHYAHLIVHGALHAQGYDHEDPAQAEEMEGIETEVLAGLGFPDPYADR | soluble
MGSDKIHHHHHHMLLTRTQIRRLVYAHGREILEHDHMAIERVCYQHGVVTTFAHSIRVACLSVWLADRLHLWNRVDLRSLIRAALLHDYFLYDWHDWDNGTHRLHGFTHGETAMRNAIRDFKLNQIERDSIEHHMFPLTPYPPKYIEGYLVTAADKISATKETLSFDRFDKPASEQPTDRS | not soluble
MSLLSIIPISAGIPLTETEPKQKWLEEWSKQLFVKVSIDSEYGWGEVLPAAFNSPALYADIVKRLEPSLNGMEISEPGIIWEKLRKLTFSGGYGPVIGAISGVDIALWDLKAKLSKLYLGDIFGKNEQKIARYASLSRYANYEAVIRASKNIVESGFKAIKLHQTKDDTLESVKRFREEIGYGVDLMVDLNCAMNIDEAIKFANSVQRYELKWVEEPIWPPDDLASLKKINDIVPVAAGENFFDFFKFEDAVHLEALTYYQPDVTKVGGLTPTLKILDLLKKNHEQVAFHNRPHNGWIGIFASIAAARMNGVDALIETPPNGVPSQYFRYNAMITSEVIAPNGVGLSIEPIEPLPQPKDEKILIFHDEGHHHHHH | not soluble
MSLKNTTIADVAAAADVSVTTVSRYLNGNYQKMSAATKQRIKETIATLHYAPKASARKMRQDHSQLIGVVVGDIANVFSSLLFKGIYDVLQPAGYDVLLMNANNTATTEHGELTRLAAQQVDGIILQPSAATAAAYAGLTIPTIIVDRQLPNSPLAQVLSSNFDASYQLGQHLREQGYRRLITVGRAVAPHTAQTDRLAGLTATGLSVIHLDMTSHGAPWLTQQLRQYQQAPDKPVIISLMGPLLFEILASLKAAHLHFPADVGLVSFDDWQWSQYVNDGIYLLQQQPALMGQLAATTLLHQLSTTPTTMTQYVPVAPVVKPSLEGHHHHHH | not soluble
MKYTITVMSGKGGVGKSTVAVNLAVSLARKGLKVGLIDADINGPDDPKLLGVSDLKLYADEEGIIPAETRYGVRVVSMGFLIPTEDTPIIWRGSLMHKAIQQFLEDVNWKDTDVVVLDMPPGTGDVALSVAQLIPESNGVVIVVTPQDVALLDAKKAINFAKQLKLPVLGIIENMSGFVCPHCGNVTYIFKNGGGEKSAKEYNLPFLGKIPLIPEIAENGDNGIPAVVINDKIREIFDSITDQILKEAQIENIKQLEHHHHHH | not soluble
MESGVPLVVVLRDVLEYVDDTSEAQYAINTDGVLVNGDSVGDVNRPIGMFDILAFPDRDEYYRVFPDEGGRLGLTEIDADAAGSKLNKVTDKTTVSGGRTQLNFHDGSNLALDEDAYAGGDSVVVDTDTNEIVAHFQYEEGALVTAVAGQHAGDIGEIAEINVQPGSASNTVRVDDENGGFETIAEYVVVIDENFLEHHHHHH | soluble
MGHHHHHHSHMQEQVLYPLEAEVTMVTSFQDADPMGVIYHGNFFRYFEEARRVLMEKIQYGYRDMQDSGYMWPIIDTRVKYVKAIPFNHTIRITAQLTEWENRLRVDYVIYDAETNQRMCKAHTTQVAVSIEKQEMCFVSPAVFLDKVEQWHNHGSLN | soluble
MINTNLSSNESSAVYIHIPFCEHICYYCDFNKVFLEGQPVDEYVDLLIKEMELTVAKGPIAPVDTVFVGGGTPTTLNEAQIARLCTAIHNTLPLKKDIEFSFEANPGDLSLSKLQAMQDHGVNRISMGVQSFNNELLKKIGRIHTVKDVYQSVENMRKIGFENVSIDLIFSLPGQTEADFQDTLKQALDLDLPHYSAYSLIIEPKTIFYNLMQKGKLFLPGQDAEANMYDLLLNEMEKHGRKQYEISNFAKEGFQSKHNITYWSNEHYYGFGAGAHGYVGNTRYSNFGPIKKYMEPLQENILPTFQQKELTLKEKMEEEMFLGLRKVDGVDKKHFKQKFGQDLDATFANAIQKTTAKGWLENNEENVALTRSGRFLGNNVFQEFL | not soluble
MAGDPMGNNNSTKESTHDNHSDSSTHEEMDHSGSADVPEGLQESKNPKYKVGSQVIINTSHMKGMKGAEATVTGAYDTTAYVVSYTPTNGGQRVDHHKWVIQEEIKDAGDKTLQPGDQVILEASHMKGMKGATAEIDSAEKTTVYMVDYTSTTSGEKVKNHKWVTEDELSAKLEHHHHHH | soluble
MFLNGNCLETLKKKEPEGGRRRLSHPGNMGWMRPSQETTPPDRSHHSGFGLFCGDPGPEIEPFSLWVFPQEMVLEIHQLFMDHEYPCHHITSHCTWVAAHWTTSQSCAAWQGCRRACCSTWWKSPAQCTRPTVMSATFETAQEPGPS | not soluble
MSLKLRARLPRGLADRGPAEIAATRAMVEKIREVYERYGFEPVETPAFEYTDALGKFLPDQDRPNEGVFSLQDDDEQWISLRYDLTAPLARYVAENFDQLPKPHRSYRFGWVFRNEKPGPGRFRQFMQFDADTVGAPTAAADAEMCMMAADTMEALGIPRGSYVVKVNNRKVLDGVLESIGLGGDENAGRRLTVLRAIDKSDKFAPEEIKKLLGPGRWDGGEEGKGDFTKGAMLSDDQSELILRATSPSFIAGRFNADGSGGISNIDTVELLRSTADNETLKQGCDELAVIADLLDACGYGATSANPDVRVVIDPSVVRGLEYYTGPVYEVELLLDTKDEKGRPVRFGSVGGGGRYDGLVSRFRGEPVPATGFSIGVSRLQAALTLIGQLGNKPQAGPVVVTVFGGEIAGYQKMVATLRKAGIRAELYLGNPKHSLGQQMKYADKRNSPCAIIQGSDEKQQGIVQIKDLILGAELASLEKDRDEYLKKQAEAQFSEGHHHHHH | not soluble
MGSDKIHHHHHHMSAFWPFRLTTGCNVNLKFLETFIWVAKLRSFSLAADKLHSTQAAISSRISVLEQELGAKLFTREPKGVALTRAGERVLQHAEQVNESMTRLYASLQDEKFAFGTIRIGAMDSAIHSWFVNFVSDVMHYYPNLDIEVTSETALNLNEQLRRGMLDMVIQTDMLRDETIRSIEVLELSMGWVAAANSPIVSQEAYDTPTAALRGLGRERLITYSRHSRPHQDLLRLMQSYGIGESRVSCVNSVAAMIQLTQAGFGVAAMPPALVPELLNSGVLRQLEGLEAPPPLPFVIAWRSGTNWTERLVEVAVETVSKYAARLGQDAARLVV | not soluble
MGSDKIHHHHHHMNPQLLRVTNRIIERSRETRSAYLARIEQAKTSTVHRSQLACGNLAHGFAACQPEDKASLKSMLRNNIAIITSYNDMLSAHQPYEHYPEIIRKALHEANAVGQVAGGVPAMCDGVTQGQDGMELSLLSREVIAMSAAVGLSHNMFDGALFLGVCDKIVPGLTMAALSFGHLPAVFVPSGPMASGLPNKEKVRIRQLYAEGKVDRMALLESEAASYHAPGTCTFYGTANTNQMVVEFMGMQLPGSSFVHPDSPLRDALTAAAARQVTRMTGNGNEWMPIGKMIDEKVVVNGIVALLATGGSTNHTMHLVAMARAAGIQINWDDFSDLSDVVPLMARLYPNGPADINHFQAAGGVPVLVRELLKAGLLHEDVNTVAGFGLSRYTLEPWLNNGELDWREGAEKSLDSNVIASFEQPFSHHGGTKVLSGNLGRAVMKTSAVPVENQVIEAPAVVFESQHDVMPAFEAGLLDRDCVVVVRHQGPKANGMPELHKLMPPLGVLLDRCFKIALVTDGRLSGASGKVPSAIHVTPEAYDGGLLAKVRDGDIIRVNGQTGELTLLVDEAELAAREPHIPDLSASRVGTGRELFSALREKLSGAEQGATCITF | not soluble
SHSEAEESKEVAADVFNSKNLAVQAQKKILGKMVSKSIATTLIDDTSSEVLDELYRVTREYTQNKKEAEKIIKNLIKTVIKLAILYRNNQFNQDELALMEKFKKKVHQLAMTVVSFHQVDYTFDRNVLSRLLNECREMLHQIIQRHLTAKSHGRVNNVFDHFSDCEFLAALYNPFGNFKPHLQKLCDGINKMLDEENI | soluble
SMDSSALPDPGFQKITLSSSSEEYQKVWNLFNRTLPFYFVQKIERVQNLALWEVYQWQKGQMQKQNGGKAVDERQLFHGTSAIFVDAICQQNFDWRVCGVHGTSYGKGSYFARDAAYSHHYSKSDTQTHTMFLARVLVGEFVRGNASFVRPPAKEGWSNAFYDSCVNSVSDPSIFVIFEKHQVYPEYVIQYTTSSKPS | soluble
MAAQLDPSSEFAALVKQLQREPDNPGLKQAVVKRLPEMQLLAKTNSLALFRLAQVYSPSSSQHKQMILQSAAQGCTNAMLSACEILLKSGAANDLITAAHYMRLIQSSKDSYIIGLGKKLLEKYPDFAEELKSKEVPYQSTLRFFGVQSESNKENEEKIINRPTV | not soluble
SNAMRLVADSACDIKELRGMVFKAVPLTISTDNEEFCDDGQLDIHRMLDILEKHKGRSYTACPGIDAWLEAFGDDDEIFVVTITAGMSGTYNSAMAARAVYLEEHPQAKVRVIDSKSTGPQMRIILEQLQQMIEEGKKFEEIDGAIDAYMQKTRLFCSLKSLHNLAQNGRVSKVVASAAEVLGISVIGTASSHGTLEAIGKCRGDKKLLVKLQALLDDAGYEGGKLRICHVENEALADKIADMIKQAYGTTDVCVYKAGGLCSYYAERGGIILSCETK | soluble
